Changes are numbered by the printed parent chain.
T1: VCAM (Panvera) (UniProt P19320 25-698, limits assumed)
T1 sequence (looked up): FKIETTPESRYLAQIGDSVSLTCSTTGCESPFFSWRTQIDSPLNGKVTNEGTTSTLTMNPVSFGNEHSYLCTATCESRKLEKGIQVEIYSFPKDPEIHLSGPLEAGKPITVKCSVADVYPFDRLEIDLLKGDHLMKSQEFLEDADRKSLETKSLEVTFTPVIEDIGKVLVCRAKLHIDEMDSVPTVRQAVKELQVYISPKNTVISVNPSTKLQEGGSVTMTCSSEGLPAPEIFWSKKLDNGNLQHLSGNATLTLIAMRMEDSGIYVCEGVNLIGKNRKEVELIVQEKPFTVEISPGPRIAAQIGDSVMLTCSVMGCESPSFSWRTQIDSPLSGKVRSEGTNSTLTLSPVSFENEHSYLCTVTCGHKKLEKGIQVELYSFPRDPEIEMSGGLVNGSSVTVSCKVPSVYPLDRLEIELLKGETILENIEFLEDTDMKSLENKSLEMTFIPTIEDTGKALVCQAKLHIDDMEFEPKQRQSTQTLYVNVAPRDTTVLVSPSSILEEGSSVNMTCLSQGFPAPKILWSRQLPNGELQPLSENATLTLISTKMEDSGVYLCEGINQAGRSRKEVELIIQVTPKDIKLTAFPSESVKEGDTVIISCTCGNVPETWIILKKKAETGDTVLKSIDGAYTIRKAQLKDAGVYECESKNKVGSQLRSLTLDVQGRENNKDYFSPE

B1: anti-MAdCAM monoclonal antibody 6.34.2 (antibody, human IgG4, kappa, V domains shown)
VH: QVQLVESGGGVVQPGRSLRLSCAASGFTFSSYGMHWVRQAPGKGLEWVAVISNDGNNKYYADSVKGRFTISRDNSKNTLYLQMNSLSAEDTAVYYCARDSTAITYYYYGMDVWGQGTTVTVSS
VL: DIQMTQSPSSLSASVGDRVTITCRASQNISSYLNWFQQKPGKAPKLLIYAASGLKRGVPSRFSGSGSGTDFTLTIRTLQPDDFATYSCHQSYSLPFTFGPGTKVDIKR
notes: fully human IgG4 kappa from hybridoma; signal peptide left out; kappa chain stained positive for glycosylation
B2: modified anti-MAdCAM monoclonal antibody 6.34.2-mod (antibody, human IgG2, kappa, V domains shown)
VH: B1 VH with S87R
VL: B1 VL with N28S, F36Y, R76S, T77S, D81E, S87Y
notes: human IgG2 kappa, made in HEK 293T cells; signal peptide left out
B3: modified anti-MAdCAM monoclonal antibody 7.26.4-mod (antibody, human IgG2, kappa, V domains shown)
VH: QVQLVQSGAEVKKPGASVKVSCEASGYTFTSYGIDWVRQAPGQGLEWMGWISVYSGNTNYAQKLQGRVTMSTDTSTSTAYMELRSLRSDDTAVYYCAREGSSSSGDYYYGMDVWGQGTTVTVSS
VL: DIVMTQTPLSLSVTPGQPASISCKSSQSLLYSDGKTYLFWYLQKPGQPPQLLIYEVSNRFSGVPDRFSGSGSGTDFTLKISRVEAEDVGVYYCMQSIQLPWTFGQGTKVEIKR
notes: human IgG2 kappa, parental heavy chain with modified kappa chain, made in HEK 293T cells; signal peptide left out
B4: anti-MAdCAM monoclonal antibody 6.77.1 (antibody, human IgG4, kappa, V domains shown)
VH: EVQLVESGGGLVKPGGSLRLSCAASGFTFSSYSMNWVRQAPGKGLEWVSSISSSSSYIYYADSVKGRFTISRDNAKNSLYLQMNSLRAEDTAVYYCARDGYSSGWSYYYYYGMDVWGQGTTVTVSS
VL: B3 VL with K24N, Y31L, F39N, Y92S, P100M, W101C, T102S, V109L
notes: as for B1
B5: modified anti-MAdCAM monoclonal antibody 6.77.1-mod (antibody, human IgG2, kappa, V domains shown)
VH: B4 VH
VL: B3 VL with Y31L, F39N, Y92S, P100M, W101S, T102S, V109L
notes: as for B2
B6: anti-MAdCAM monoclonal antibody 7.16.6 (antibody, human IgG2, kappa, V domains shown)
VH: B3 VH with E23K, D35N, L64V, S71T, T72A, E82D
VL: B3 VL with Y31H, S32T, K35T, F39Y, V90I, S96N
B7: anti-MAdCAM monoclonal antibody 6.73.2 (antibody, human IgG4, kappa, V domains shown)
VH: EVQLLESGGDLVQPGGSLRLSCAASGFTFRSYAMNWVRQAPGKGLEWVSVISGRGGTTYYADSVKGRFTISRDNSKNTLYLQMNSLRAEDAAVYYCAKIAVAGEGLYYYYGMDVWGQGTTVTVSS
VL: DIQMTQSPSSLSASVGDRVTFTCRASQNITNYLNWYQQKPGKAPKLLIYAASSLPRGVPSRFRGSGSGTDFTLTISSLQPEDFATYYCQQSYSNPPECGFGQGTTLDIKR
B8: anti-MAdCAM monoclonal antibody 7.20.5 (antibody, human IgG2, kappa, V domains shown)
VH: QVQLQESGPGLVKPSETLSLTCTVSGSSISSYHWNWIRQPAGKGLEWIGRIYTSGSTNYNPSLKSRVTMSLDTSKNQFSLKLSSVTAADTAVYYCAREGVRYYYASGSYYYGLDVWGQGTTVTVSS
VL: not shown
notes: fully human IgG2 kappa from hybridoma; signal peptide left out
B9: anti-MAdCAM monoclonal antibody 6.14.2 (antibody, human IgG4, kappa, V domains shown)
VH: EVQLLESGGGLVQPGGSLRLSCAASGLTFNNSAMTWVRQAPGKGLEWVSTTSGSGGTTYYADSVKGRFTISRDSPKNTLYLQMNSLRAEDTAVYYCAARGYSYGTTPYEYWGQGTLVTVSS
VL: DIQMTQSPSSLSASVGDRVTITCRASRSISSYLNWYQQKPGKAPKVLIFFVSSLQSGVPSRFSGSGSGTDFTLTISSLQPEDFATYYCQQNYIPPITFGQGTRLEIRR
B10: anti-MAdCAM monoclonal antibody 6.67.1 (antibody, human IgG4, kappa, V domains shown)
VH: QVQLQESGPGLVKPSETLSLTCTVSGDSISSNYWSWIRQPAGKGLEWIGRIYTSGGTNSNPSLRGRVTILADTSKNQFSLKLSSVTAADTAVYYCARDRITIIRGLIPSFFDYWGQGTLVTVSS
VL: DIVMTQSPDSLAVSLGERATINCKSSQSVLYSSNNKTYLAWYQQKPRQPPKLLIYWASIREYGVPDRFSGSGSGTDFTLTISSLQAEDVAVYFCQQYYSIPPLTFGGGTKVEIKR
notes: as for B1
B11: modified anti-MAdCAM monoclonal antibody 6.67.1-mod (antibody, human IgG2, kappa, V domains shown)
VH: B10 VH with I69M, L70S, A71V
VL: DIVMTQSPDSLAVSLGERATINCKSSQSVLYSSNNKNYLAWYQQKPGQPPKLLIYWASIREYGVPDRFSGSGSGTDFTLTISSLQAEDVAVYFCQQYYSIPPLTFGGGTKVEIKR
notes: as for B2
B12: anti-MAdCAM monoclonal antibody 6.22.2 (antibody, human IgG4, kappa, V domains shown)
VH: QVQLVESGGGVVQPGRSLRLSCAASGHTFSSDGMHWVRQAPGKGLEWVAIIWYDGSNKYYADSVKGRFTISRDNSKNTLYLQMNSLRAEDTAVYYCARDPGYYYGMDVWGQGTTVTVSS
VL: EIVLTQSPDFQSVTPKEKVTITCRASQRIGSSLHWYQQKPDQSPKLLIKYASQSFSGVPSRFSGSGSGTNFTLTINGLEAEDAATYYCHQSGRLPLTFGGGTKVEIKR
notes: as for B1
B13: modified anti-MAdCAM monoclonal antibody 6.22.2-mod (antibody, human IgG2, kappa, V domains shown)
VH: B12 VH with H27F
VL: B12 VL with N70D, G77S
notes: as for B2
B14: anti-MAdCAM monoclonal antibody 1.7.2 (antibody, human IgG2, kappa, V domains shown)
VH: EVQLVESGGGLVKPGGSLRLSCVASGFTFTNAWMIWVRQAPGKGLEWVGRIKRKTDGGTTDYAAPVKGRFTISRDDSKNTLYLQMNSLKTEDTAVYYCTTGGVAEDYWGQGTLVTVSS
VL: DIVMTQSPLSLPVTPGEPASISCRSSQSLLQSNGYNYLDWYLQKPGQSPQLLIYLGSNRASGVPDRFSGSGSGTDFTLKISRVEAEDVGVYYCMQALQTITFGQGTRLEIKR
B15: anti-MAdCAM monoclonal antibody 1.8.2 (antibody, human IgG2, kappa, V domains shown)
VH: B14 VH with A24V
VL: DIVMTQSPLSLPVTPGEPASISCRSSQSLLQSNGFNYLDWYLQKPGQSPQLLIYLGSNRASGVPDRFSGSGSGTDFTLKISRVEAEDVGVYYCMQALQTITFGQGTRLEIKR

Tests used:
[1] = target: T1, VCAM (Panvera); assay: cell-based or functional assay
[2] = target: Fibronectin cell binding fragment (110 Kd, Europa Bioproducts Ltd, Cat. No. UBF4215-18) (UniProt P02751-1 722-1635); assay: cell-based or functional assay
[3] = target: T2, MAdCAM-IgG1 Fc fusion protein (human); assay: MAdCAM-IgG1 Fc fusion / JY cell adhesion assay, mean IC50
T2 construct: Expressed in CHO-DHFR cells; also called MAdCAM-IgFc; soluble MAdCAM (in the sandwich ELISA)
Method: (§1) The cells were washed twice with RPMI 1640 media (Gibco) containing 2 mM L-glutamine (Gibco) by centrifugation (240 g), resuspending the final cell pellet at 2×10⁶ cells/mL in RPMI 1640 for Calcein AM loading. Calcein AM (Molecular Probes #C-3099) was added to the cells as a 1:200 dilution in DMSO (ca. final concentration 5 μM) and the cells protected from light during the course of the incubation (37° C. for 30 min). During this cell incubation step the antibodies to be tested, were diluted as follows: for single dose testing, the antibodies were made up to 3 μg/mL (1 μg/mL final) in 0.1 mg/mL BSA (Sigma#A3059) in PBS; for full IC₅₀ curves, the antibodies were diluted in 0.1 mg/mL BSA/PBS, with 3 μg/mL (1 μg/mL final) being the top concentration, then doubling dilutions (1:2 ratio) across the plate. The final well of the row was used for determining total binding, so 0.1 mg/ml BSA in PBS was used.
(§2) After blocking, the plate contents were flicked out and 50 μL of antibodies/controls were added to each well and the plate incubated at 37° C. for 20 min. During this time, Calcein-loaded JY cells were washed once with RPMI 1640 media containing 10% fetal bovine serum and once with 1 mg/mL BSA/PBS by centrifugation, resuspending the final cell pellet to 1×10⁶/mL in 1 mg/mL BSA/PBS. 100 μL of cells were added to each well of the U bottomed plate, the plate sealed, briefly centrifuged (1000 rpm for 2 min) and the plate then incubated at 37° C. for 45 min. At the end of this time, the plates were washed with a Skatron plate washer and fluorescence measured using a Wallac Victor² 1420 Multilabel Reader (excitation λ 485 nm, emission λ 535 nm count from top, 8 mm from bottom of plate, for 0.1 sec with normal emission aperture). For each antibody concentration, percent adhesion was expressed as a percentage of maximal fluorescence response in the absence of any antibody minus fluorescence associated with non-specific binding. The IC₅₀ value is defined as the anti-MAdCAM antibody concentration at which the adhesion response is decreased to 50% of the response in the absence of anti-MAdCAM antibody.

[4] = target: T2, MAdCAM-IgG1 Fc fusion protein; assay: adhesion of calcein-loaded α4β7+ JY cells to coated MAdCAM-IgG1 Fc, blocked by antibody
Method: as §1
as §2, with “The IC₅₀ value is defined as the anti-MAdCAM antibody concentration at which the adhesion response is decreased to 50% of the response in the absence of anti-MAdCAM antibody.” left out

Fibronectin cell binding fragment (110 Kd, Europa Bioproducts Ltd, Cat. No. UBF4215-18), sequence (P02751 other isoform, or with tags, fused parts or gaps limits assumed): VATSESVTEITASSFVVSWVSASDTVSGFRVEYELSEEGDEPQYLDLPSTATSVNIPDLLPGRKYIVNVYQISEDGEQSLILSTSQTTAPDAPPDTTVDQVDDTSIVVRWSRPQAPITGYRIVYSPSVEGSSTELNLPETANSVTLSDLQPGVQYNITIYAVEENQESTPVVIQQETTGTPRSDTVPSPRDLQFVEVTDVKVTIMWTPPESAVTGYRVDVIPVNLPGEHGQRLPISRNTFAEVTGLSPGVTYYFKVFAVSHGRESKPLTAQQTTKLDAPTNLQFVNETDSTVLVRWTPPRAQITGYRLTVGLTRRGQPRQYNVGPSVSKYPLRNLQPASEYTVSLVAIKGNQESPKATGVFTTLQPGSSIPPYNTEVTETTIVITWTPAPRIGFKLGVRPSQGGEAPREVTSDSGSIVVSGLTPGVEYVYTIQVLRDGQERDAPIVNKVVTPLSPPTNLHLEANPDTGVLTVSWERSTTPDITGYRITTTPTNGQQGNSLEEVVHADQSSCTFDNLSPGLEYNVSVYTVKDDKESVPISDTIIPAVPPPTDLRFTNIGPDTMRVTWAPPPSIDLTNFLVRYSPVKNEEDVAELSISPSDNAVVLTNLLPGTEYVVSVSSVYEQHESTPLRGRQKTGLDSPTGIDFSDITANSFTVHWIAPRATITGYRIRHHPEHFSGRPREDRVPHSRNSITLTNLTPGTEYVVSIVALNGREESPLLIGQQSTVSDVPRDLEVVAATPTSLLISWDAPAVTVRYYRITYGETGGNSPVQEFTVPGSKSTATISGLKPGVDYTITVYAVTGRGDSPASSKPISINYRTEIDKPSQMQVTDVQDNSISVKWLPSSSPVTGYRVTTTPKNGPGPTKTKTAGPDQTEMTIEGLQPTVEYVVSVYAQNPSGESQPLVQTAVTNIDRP
T2 sequence (chain, as listed by the source limits assumed): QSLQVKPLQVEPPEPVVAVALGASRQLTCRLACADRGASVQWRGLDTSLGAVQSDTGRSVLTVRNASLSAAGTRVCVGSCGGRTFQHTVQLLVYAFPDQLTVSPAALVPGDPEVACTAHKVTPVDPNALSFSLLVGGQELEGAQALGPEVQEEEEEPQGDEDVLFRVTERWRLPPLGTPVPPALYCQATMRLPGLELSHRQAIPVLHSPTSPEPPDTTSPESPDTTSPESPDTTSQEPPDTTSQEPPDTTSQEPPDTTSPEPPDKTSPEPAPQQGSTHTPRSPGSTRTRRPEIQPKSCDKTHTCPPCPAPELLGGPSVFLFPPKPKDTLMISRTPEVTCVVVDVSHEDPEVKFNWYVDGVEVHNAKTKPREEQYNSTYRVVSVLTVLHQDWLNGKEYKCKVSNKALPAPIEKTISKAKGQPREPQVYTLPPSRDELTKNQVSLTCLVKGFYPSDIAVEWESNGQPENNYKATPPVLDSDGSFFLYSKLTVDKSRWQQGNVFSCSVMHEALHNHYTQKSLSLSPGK

Binder | inhibition of adhesion of α4β1+/α5β1+ Jurkat T-cells to coated VCAM [1] [fold] | inhibition of adhesion of α4β1+/α5β1+ Jurkat T-cells to coated Fibronectin cell binding fragment [2] [fold] | IC50 [3] [µg/mL] | IC50 [4] [µg/mL]
B1 | > 100 | > 100 | 0.013 | –
B2 | – | – | 0.049 | –
B3 | – | – | 0.033 | –
B4 | > 100 | > 100 | – | –
B5 | – | – | 0.077 | –
B6 | > 100 | > 100 | – | –
B7 | > 100 | > 100 | – | –
B8 | > 100 | > 100 | – | < 0.1
B9 | > 100 | > 100 | – | –
B10 | > 100 | > 100 | 0.013 | –
B11 | – | – | 0.037 | –
B12 | > 100 | > 100 | 0.018 | –
B13 | – | – | 0.058 | –
B14 | > 100 | > 100 | – | –
B15 | > 100 | > 100 | – | –
